15 molecules from patent publication US20240391954A1, “MC4R AGONIST PEPTIDES” (The Regents of the University of Michigan, priority 2021, published 2024) can be followed below.

Starred links: 1 amine or outer side, 2 acyl side, 3 side chain; linkers in the order of their positions; H or OH if unused. Positions of bridges follow the written chain, without caps; N, C: chain ends. Non-standard residues stand in square brackets, D forms with d. dTyr(4-OMe) = O-methyl-D-tyrosine (4-OMe), COc1ccc(C[C@@H](N[*:1])C(=O)[*:2])cc1; dPhe(4-Br) = N[C@H](Cc1ccc(Br)cc1)C(=O)O; 1Nal = N[C@@H](Cc1cccc2ccccc12)C(=O)O; d1Nal = N[C@H](Cc1cccc2ccccc12)C(=O)O; 2Pal = N[C@@H](Cc1ccccn1)C(=O)O; 3Pal = N[C@@H](Cc1cccnc1)C(=O)O; 4Pal = N[C@@H](Cc1ccncc1)C(=O)O; Cit = NC(=O)NCCC[C@H](N)C(=O)O; Nle = CCCC[C@H](N)C(=O)O; Orn = NCCC[C@H](N)C(=O)O; Aib = CC(C)(N)C(=O)O

Holding throughout (test): cell-based or functional assay
Assay [1] addresses T1, human MC4R receptor (human, UniProt P32245 1-332).
For assay [2], the target named is human MC3R (human, UniProt P41968 1-323).
Sequence of human MC3R (P41968 whole entry): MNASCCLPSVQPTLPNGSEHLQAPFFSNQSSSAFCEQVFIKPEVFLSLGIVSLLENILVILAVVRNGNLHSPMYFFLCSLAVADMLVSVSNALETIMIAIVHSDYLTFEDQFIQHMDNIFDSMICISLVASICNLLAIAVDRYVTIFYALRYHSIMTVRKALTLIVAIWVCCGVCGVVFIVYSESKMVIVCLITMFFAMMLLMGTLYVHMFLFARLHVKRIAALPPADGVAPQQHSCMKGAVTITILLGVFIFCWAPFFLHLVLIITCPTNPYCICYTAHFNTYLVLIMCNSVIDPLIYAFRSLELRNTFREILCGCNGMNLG
Assay [3] deals with T1, human MC4R receptor. The source holds these as a separate data set.

T1 sequence (P32245 whole entry): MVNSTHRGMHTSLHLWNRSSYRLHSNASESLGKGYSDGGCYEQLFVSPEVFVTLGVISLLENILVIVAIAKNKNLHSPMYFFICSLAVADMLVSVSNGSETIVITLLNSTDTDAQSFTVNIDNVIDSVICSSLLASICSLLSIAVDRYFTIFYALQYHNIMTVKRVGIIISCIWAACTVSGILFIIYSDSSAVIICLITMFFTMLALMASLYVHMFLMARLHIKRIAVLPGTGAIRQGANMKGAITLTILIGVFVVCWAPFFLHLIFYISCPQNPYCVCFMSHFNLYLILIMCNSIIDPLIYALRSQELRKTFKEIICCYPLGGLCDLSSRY

B1: CTX-1609 (peptide)
peptide: Ac-R[Nle]C[Cit]FRWC-NH2
modifications: disulfide 3-8
SMILES: CCCC[C@H](NC(=O)[C@H](CCCNC(=N)N)NC(C)=O)C(=O)N[C@H]1CSSC[C@@H](C(N)=O)NC(=O)[C@H](Cc2c[nH]c3ccccc23)NC(=O)[C@H](CCCNC(=N)N)NC(=O)[C@H](Cc2ccccc2)NC(=O)[C@H](CCCNC(N)=O)NC1=O
With B1, in assay [1], the “% max activation” value was determined as 96% and the “cAMP EC50” value came to 86 nM. Besides, in assay [2], the “% max activation” value was found to be 65% and the “cAMP EC50” value worked out at 407 nM. Further, in assay [3], the “MC4R selectivity vs MC1R” value turned out to be 4.15 and the “MC4R selectivity vs MC3R” value stood at 4.72.

B2: CTX-1623 (peptide)
peptide: Ac-R[Nle]CR[dPhe(4-Br)]RFC-NH2
modifications: disulfide 3-8
SMILES: CCCC[C@H](NC(=O)[C@H](CCCNC(=N)N)NC(C)=O)C(=O)N[C@H]1CSSC[C@@H](C(N)=O)NC(=O)[C@H](Cc2ccccc2)NC(=O)[C@H](CCCNC(=N)N)NC(=O)[C@@H](Cc2ccc(Br)cc2)NC(=O)[C@H](CCCNC(=N)N)NC1=O
In the case of B2, in assay [1], the “% max activation” value came out at 73% and the “cAMP EC50” value worked out at 1.7 nM. Moreover, in assay [2], the “% max activation” value turned out to be 62% and the “cAMP EC50” value is 3.9 nM. In assay [3], the “MC4R selectivity vs MC1R” value came out at 1.08 and the “MC4R selectivity vs MC3R” value was found to be 2.29.

B3: CTX-1606 (peptide)
peptide: Ac-RC[Aib][4Pal][dF]RFC-NH2
modifications: disulfide 2-8
SMILES: CC(=O)N[C@@H](CCCNC(=N)N)C(=O)N[C@H]1CSSC[C@@H](C(N)=O)NC(=O)[C@H](Cc2ccccc2)NC(=O)[C@H](CCCNC(=N)N)NC(=O)[C@@H](Cc2ccccc2)NC(=O)[C@H](Cc2ccncc2)NC(=O)C(C)(C)NC1=O
As to B3, in assay [1], the “% max activation” value amounted to 92% and the “cAMP EC50” value is 133 nM. In assay [2], the “% max activation” value was found to be 7.69% and the “cAMP EC50” value is 82 nM. In addition, in assay [3], the “MC4R selectivity vs MC1R” value is 2.99 and the “MC4R selectivity vs MC3R” value worked out at 0.62.

B4: CTX-1627 (peptide)
peptide: Ac-C[dA]R[dF]RWC-NH2
modifications: disulfide 1-7
SMILES: CC(=O)N[C@H]1CSSC[C@@H](C(N)=O)NC(=O)[C@H](Cc2c[nH]c3ccccc23)NC(=O)[C@H](CCCNC(=N)N)NC(=O)[C@@H](Cc2ccccc2)NC(=O)[C@H](CCCNC(=N)N)NC(=O)[C@@H](C)NC1=O
B4: in assay [1], the “% max activation” value stood at 104% and the “cAMP EC50” value was found to be 1.4 nM. For the same molecule, in assay [2], the “% max activation” value was determined as 98% and the “cAMP EC50” value turned out to be 3.7 nM. In assay [3], the “MC4R selectivity vs MC1R” value came out at 9.33 and the “MC4R selectivity vs MC3R” value was found to be 2.47.

B5: CTX-1626 (peptide)
peptide: Ac-R[Nle]C[Cit][dF]RFC-NH2
modifications: disulfide 3-8
SMILES: CCCC[C@H](NC(=O)[C@H](CCCNC(=N)N)NC(C)=O)C(=O)N[C@H]1CSSC[C@@H](C(N)=O)NC(=O)[C@H](Cc2ccccc2)NC(=O)[C@H](CCCNC(=N)N)NC(=O)[C@@H](Cc2ccccc2)NC(=O)[C@H](CCCNC(N)=O)NC1=O
Take B5: in assay [1], the “% max activation” value came to 83% and the “cAMP EC50” value is 425 nM. In assay [2], the “% max activation” value was found to be 51% and the “cAMP EC50” value is 678 nM. In addition, in assay [3], the “MC4R selectivity vs MC1R” value came to 3.05 and the “MC4R selectivity vs MC3R” value was found to be 1.6.

B6: CTX-1617 (peptide)
peptide: Ac-R[Nle]C[Orn][dF]RWC-NH2
modifications: disulfide 3-8
SMILES: CCCC[C@H](NC(=O)[C@H](CCCNC(=N)N)NC(C)=O)C(=O)N[C@H]1CSSC[C@@H](C(N)=O)NC(=O)[C@H](Cc2c[nH]c3ccccc23)NC(=O)[C@H](CCCNC(=N)N)NC(=O)[C@@H](Cc2ccccc2)NC(=O)[C@H](CCCN)NC1=O
For B6, in assay [1], the “% max activation” value turned out to be 102% and the “cAMP EC50” value was found to be 0.21 nM. In assay [2], the “% max activation” value stood at 102% and the “cAMP EC50” value was 2.3 nM. Besides, in assay [3], the “MC4R selectivity vs MC1R” value was determined as 1.75 and the “MC4R selectivity vs MC3R” value stood at 11.

B7: CTX-1624 (peptide)
peptide: Ac-R[Nle]CR[dTyr(4-OMe)]RFC-NH2
modifications: disulfide 3-8
SMILES: CCCC[C@H](NC(=O)[C@H](CCCNC(=N)N)NC(C)=O)C(=O)N[C@H]1CSSC[C@@H](C(N)=O)NC(=O)[C@H](Cc2ccccc2)NC(=O)[C@H](CCCNC(=N)N)NC(=O)[C@@H](Cc2ccc(OC)cc2)NC(=O)[C@H](CCCNC(=N)N)NC1=O
In the case of B7, in assay [1], the “% max activation” value is 83% and the “cAMP EC50” value is 12 nM. In assay [2], the “% max activation” value stood at 66% and the “cAMP EC50” value worked out at 5.6 nM. Besides, in assay [3], the “MC4R selectivity vs MC1R” value amounted to 0.15 and the “MC4R selectivity vs MC3R” value was found to be 0.47.

B8: CTX-1619 (peptide)
peptide: Ac-R[Nle]C[2Pal][dF]RWC-NH2
modifications: disulfide 3-8
SMILES: CCCC[C@H](NC(=O)[C@H](CCCNC(=N)N)NC(C)=O)C(=O)N[C@H]1CSSC[C@@H](C(N)=O)NC(=O)[C@H](Cc2c[nH]c3ccccc23)NC(=O)[C@H](CCCNC(=N)N)NC(=O)[C@@H](Cc2ccccc2)NC(=O)[C@H](Cc2ccccn2)NC1=O
On to B8, for which, in assay [1], the “% max activation” value worked out at 99% and the “cAMP EC50” value was found to be 2.6 nM. Also, in assay [2], the “% max activation” value came out at 84% and the “cAMP EC50” value turned out to be 33 nM. Besides, in assay [3], the “MC4R selectivity vs MC1R” value amounted to 86 and the “MC4R selectivity vs MC3R” value was 13.

B9: CTX-1610 (peptide)
peptide: Ac-R[Nle]CH[1Nal]RWC-NH2
modifications: disulfide 3-8
SMILES: CCCC[C@H](NC(=O)[C@H](CCCNC(=N)N)NC(C)=O)C(=O)N[C@H]1CSSC[C@@H](C(N)=O)NC(=O)[C@H](Cc2c[nH]c3ccccc23)NC(=O)[C@H](CCCNC(=N)N)NC(=O)[C@H](Cc2cccc3ccccc23)NC(=O)[C@H](Cc2c[nH]cn2)NC1=O
B9: in assay [1], the “% max activation” value is 90% and the “cAMP EC50” value was 247 nM. For the same molecule, in assay [2], the “% max activation” value stood at 67% and the “cAMP EC50” value was 163 nM. Besides, in assay [3], the “MC4R selectivity vs MC1R” value turned out to be 0.03 and the “MC4R selectivity vs MC3R” value worked out at 0.66.

In the case of Ac-R[Nle]CR[dF]R[dW]C-NH2 (disulfide 3-8) [CTX-1616], in assay [1], the “% max activation” value came to 93% and the “cAMP EC50” value was 16 nM. Besides, in assay [2], the “% max activation” value was 78% and the “cAMP EC50” value was determined as 61 nM. Moreover, in assay [3], the “MC4R selectivity vs MC1R” value came out at 1.51 and the “MC4R selectivity vs MC3R” value worked out at 3.78.

B10: CTX-1620 (peptide)
peptide: Ac-R[Nle]C[3Pal][dF]RWC-NH2
modifications: disulfide 3-8
SMILES: CCCC[C@H](NC(=O)[C@H](CCCNC(=N)N)NC(C)=O)C(=O)N[C@H]1CSSC[C@@H](C(N)=O)NC(=O)[C@H](Cc2c[nH]c3ccccc23)NC(=O)[C@H](CCCNC(=N)N)NC(=O)[C@@H](Cc2ccccc2)NC(=O)[C@H](Cc2cccnc2)NC1=O
Take B10: in assay [1], the “% max activation” value turned out to be 91% and the “cAMP EC50” value came out at 4.7 nM. Also, in assay [2], the “% max activation” value turned out to be 39% and the “cAMP EC50” value was found to be 58 nM. In addition, in assay [3], the “MC4R selectivity vs MC1R” value was 47 and the “MC4R selectivity vs MC3R” value was found to be 12.

B11: CTX-1611 (peptide)
peptide: Ac-R[Nle]CR[d1Nal]RWC-NH2
modifications: disulfide 3-8
SMILES: CCCC[C@H](NC(=O)[C@H](CCCNC(=N)N)NC(C)=O)C(=O)N[C@H]1CSSC[C@@H](C(N)=O)NC(=O)[C@H](Cc2c[nH]c3ccccc23)NC(=O)[C@H](CCCNC(=N)N)NC(=O)[C@@H](Cc2cccc3ccccc23)NC(=O)[C@H](CCCNC(=N)N)NC1=O
Turning to B11, in assay [1], the “% max activation” value is 67% and the “cAMP EC50” value was 1.6 nM. Also, in assay [2], the “% max activation” value stood at 58% and the “cAMP EC50” value was found to be 11 nM. Besides, in assay [3], the “MC4R selectivity vs MC1R” value was 0.25 and the “MC4R selectivity vs MC3R” value was found to be 6.61.

B12: CTX-1622 (peptide)
peptide: Ac-R[Nle]CR[dF]RFC-NH2
modifications: disulfide 3-8
SMILES: CCCC[C@H](NC(=O)[C@H](CCCNC(=N)N)NC(C)=O)C(=O)N[C@H]1CSSC[C@@H](C(N)=O)NC(=O)[C@H](Cc2ccccc2)NC(=O)[C@H](CCCNC(=N)N)NC(=O)[C@@H](Cc2ccccc2)NC(=O)[C@H](CCCNC(=N)N)NC1=O
As for B12, in assay [1], the “% max activation” value came to 101% and the “cAMP EC50” value was 41 nM. Moreover, in assay [2], the “% max activation” value came to 100% and the “cAMP EC50” value worked out at 13 nM. Besides, in assay [3], the “MC4R selectivity vs MC1R” value amounted to 0.39 and the “MC4R selectivity vs MC3R” value was found to be 0.32.

B13: CTX-1608 (peptide)
peptide: Ac-R[Nle]C[Cit][dF]R[dW]C-NH2
modifications: disulfide 3-8
SMILES: CCCC[C@H](NC(=O)[C@H](CCCNC(=N)N)NC(C)=O)C(=O)N[C@H]1CSSC[C@@H](C(N)=O)NC(=O)[C@@H](Cc2c[nH]c3ccccc23)NC(=O)[C@H](CCCNC(=N)N)NC(=O)[C@@H](Cc2ccccc2)NC(=O)[C@H](CCCNC(N)=O)NC1=O
On to B13, for which, in assay [1], the “% max activation” value is 79% and the “cAMP EC50” value was 288 nM. For the same molecule, in assay [2], the “% max activation” value came out at 19% and the “cAMP EC50” value is 274 nM. Moreover, in assay [3], the “MC4R selectivity vs MC1R” value was 2.07 and the “MC4R selectivity vs MC3R” value turned out to be 0.95.

B14: CTX-1621 (peptide)
peptide: Ac-R[Nle]C[4Pal][dF]RWC-NH2
modifications: disulfide 3-8
SMILES: CCCC[C@H](NC(=O)[C@H](CCCNC(=N)N)NC(C)=O)C(=O)N[C@H]1CSSC[C@@H](C(N)=O)NC(=O)[C@H](Cc2c[nH]c3ccccc23)NC(=O)[C@H](CCCNC(=N)N)NC(=O)[C@@H](Cc2ccccc2)NC(=O)[C@H](Cc2ccncc2)NC1=O
With B14, in assay [1], the “% max activation” value came to 92% and the “cAMP EC50” value turned out to be 2.9 nM. Also, in assay [2], the “% max activation” value worked out at 15% and the “cAMP EC50” value stood at 36 nM. In assay [3], the “MC4R selectivity vs MC1R” value was 82 and the “MC4R selectivity vs MC3R” value worked out at 13.
